According to patent US20220177587A1, “METHODS AND USES OF VARIANT CD80 FUSION PROTEINS AND RELATED CONSTRUCTS” (Alpine Immune Sciences, Inc., priority 2018, published 2022):
One block for each substance: values may come before it.

What was measured:
CD28 (human) [1] = molecular target: CD28 (human) (UniProt P10747)
human CTLA-4 (human) [2] = molecular target: human CTLA-4 (human) (UniProt P16410); test: flow cytometry, CHO cells stably expressing CTLA4
PD-L1 (human) [3] = molecular target: PD-L1 (human) (UniProt Q9NZQ7); test: flow cytometry, CHO cells stably expressing PD-L1
Target sequence in this assay (Q9NZQ7 19-290): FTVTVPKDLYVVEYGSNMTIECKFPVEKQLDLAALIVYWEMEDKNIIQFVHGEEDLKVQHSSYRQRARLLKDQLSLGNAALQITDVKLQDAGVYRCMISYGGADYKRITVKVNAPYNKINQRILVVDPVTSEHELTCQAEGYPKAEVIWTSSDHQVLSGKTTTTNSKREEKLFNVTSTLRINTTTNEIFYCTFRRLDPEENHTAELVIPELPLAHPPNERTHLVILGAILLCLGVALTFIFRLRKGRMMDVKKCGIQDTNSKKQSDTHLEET

PD-L1 (human) [4] = molecular target: PD-L1 (human) (UniProt Q9NZQ7); test: flow cytometry, Expi293F cells transfected with PD-L1
PD-L1 (human) [5] = molecular target: PD-L1 (human) (UniProt Q9NZQ7); test: flow cytometry, CHO cells expressing huPD-L1
CD28 (human) [6] = molecular target: CD28 (human) (UniProt P10747); test: flow cytometry, Jurkat/IL2 reporter cells (CD28)
CD28 (human) [7] = molecular target: CD28 (human) (UniProt P10747); remark: listed apart in the source
[8] = molecular target: human PD-L1 (huPD-L1), on stably transduced CHO cells (human) (UniProt Q9NZQ7); test: flow cytometry on CHO cells stably expressing huPD-L1, 33.3 nM Fc fusion, PE anti-human Fc
[9] = molecular target: CD28, endogenously expressed on Jurkat/IL2 reporter cells (human) (UniProt P10747); test: flow cytometry on Jurkat/IL2 reporter cells (endogenous CD28), 33.3 nM Fc fusion, PE anti-human Fc
CD28 (human) [10] = molecular target: CD28 (human) (UniProt P10747); test: flow cytometry, Jurkat cells (CD28)
human CTLA-4 (human) [11] = molecular target: human CTLA-4 (human) (UniProt P16410); test: flow cytometry, CHO cells stably expressing CTLA4; remark: listed apart in the source
PD-L1 (human) [12] = molecular target: PD-L1 (human) (UniProt Q9NZQ7); test: flow cytometry, CHO cells stably expressing PD-L1; remark: listed apart in the source
Target sequence in this assay (Q9NZQ7 19-290): as above

PD-L1 (human) [13] = molecular target: PD-L1 (human) (UniProt Q9NZQ7); test: flow cytometry, MFI on PD-L1 cells over MFI on CD28 cells
Target sequence in this assay (Q9NZQ7 19-290): as above

human CTLA-4 (human) [14] = molecular target: human CTLA-4 (human) (UniProt P16410); test: flow cytometry, CHO cells expressing huCTLA-4
[15] = molecular target: human CTLA-4 (huCTLA4), on stably transduced CHO cells (human) (UniProt P16410); test: flow cytometry on CHO cells stably expressing huCTLA4, 33.3 nM Fc fusion, PE anti-human Fc
human CTLA-4 (huCTLA4), on stably transduced CHO cells (human), sequence (P16410 36-223): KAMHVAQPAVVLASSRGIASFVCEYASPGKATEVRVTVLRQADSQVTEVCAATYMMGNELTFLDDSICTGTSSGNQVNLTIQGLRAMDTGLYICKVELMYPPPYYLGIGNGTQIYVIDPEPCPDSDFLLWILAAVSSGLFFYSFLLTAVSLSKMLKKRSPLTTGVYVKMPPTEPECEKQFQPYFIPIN

PD-L1 (human) [16] = molecular target: PD-L1 (human) (UniProt Q9NZQ7); test: flow cytometry, CHO cells expressing huPD-L1; remark: listed apart in the source
Target sequence in this assay (Q9NZQ7 19-290): as the sequence (Q9NZQ7 19-290) above

human CTLA-4 (human) [17] = molecular target: human CTLA-4 (human) (UniProt P16410); test: flow cytometry, CHO cells expressing huCTLA4

human CTLA-4 (human), sequence (P16410 36-223): as the sequence (P16410 36-223) above

Jurkat/IL2 reporter RLU at 50 nM, CHO/OKT3 aAPC without PD-L1 (CD28 (human) [1]): 515 RLU
Substance: CD80 E35D/M43L/L70M IgV-Fc (inert) (Fc fusion)

MFI at 33.3 nM (human CTLA-4 (human) [2]): 19200 MFI
MFI at 33.3 nM (PD-L1 (human) [3]): 2080 MFI
Substance: CD80 IgV-Fc H18Y/E35D/D46E/M47I/V68M/R94L (Fc fusion)

MFI (PD-L1 (human) [4]): 6 MFI
Substance: CD80 L70Q/A91G/N144D ECD-Fc (Fc fusion)

MFI (PD-L1 (human) [4]): 6 MFI
Substance: CD80 Y31H/T41G/M43L/L70Q/A91G/I118V/T120S/I126V/T130A ECD-Fc (Fc fusion)

MFI at 33.3 nM (PD-L1 (human) [5]): 128 MFI
MFI at 33.3 nM (CD28 (human) [6]): 709 MFI
Substance: WT CD80 ECD-Fc (Abcam) (from UniProt P33681) (Fc fusion)

MFI (PD-L1 (human) [4]): 70 MFI
Substance: WT CD80 ECD-Fc (Example 25) (Fc fusion)

IL-2 release, primary T cells + K562/OKT3 (No PD-L1), 100 nM (CD28 (human) [7]): 23100
IL-2 release, primary T cells + K562/OKT3/PD-L1, 100 nM (CD28 (human) [7]): 8390
Substance: WT CD80 ECD-Fc (effector) (Fc fusion)

MFI at 33.3 nM [8]: 46.3 MFI
MFI at 33.3 nM [9]: 43 MFI
Substance: WT CD80 ECD-Fc H22.6 (Fc fusion)

IL-2 release, primary T cells + K562/OKT3 (No PD-L1), 100 nM (CD28 (human) [7]): 6200
Substance: WT CD80 IgV-Fc (effector) (Fc fusion)

IL-2 release, primary T cells + K562/OKT3 (No PD-L1), 100 nM (CD28 (human) [7]): 6260
Substance: WT IgG1 Fc Control

Fold change to WT CD80 (CD28 (human) [10]): 50.4 fold
MFI at 33.3 nM (CD28 (human) [10]): 2210 MFI
Fold change to WT CD80 (human CTLA-4 (human) [11]): 16 fold
MFI at 33.3 nM (human CTLA-4 (human) [11]): 21700 MFI
Fold change to WT CD80 (PD-L1 (human) [12]): 693 fold
MFI at 33.3 nM (PD-L1 (human) [12]): 30200 MFI
Ratio of PDL1:CD28 (PD-L1 (human) [13]): 13.7
Substance: variant CD80 IgV-Fc A26E/E35D/M47L/V68M/A71G/D90G (Fc fusion)

MFI at 33.3 nM (PD-L1 (human) [5]): 2580 MFI
MFI at 33.3 nM (human CTLA-4 (human) [14]): 42900 MFI
MFI at 33.3 nM (CD28 (human) [6]): 134 MFI
Substance: variant CD80 IgV-Fc E35D (Fc fusion)

MFI at 33.3 nM [15]: 32200 MFI
MFI at 33.3 nM [8]: 2820 MFI
MFI at 33.3 nM [9]: 3450 MFI
Substance: variant CD80 IgV-Fc E35D/D46E/A91G (Fc fusion)

MFI at 33.3 nM (PD-L1 (human) [5]): 29300 MFI
MFI at 33.3 nM (human CTLA-4 (human) [14]): 34300 MFI
Substance: variant CD80 IgV-Fc E35D/D46V/M47L/V68M (Fc fusion)

MFI at 33.3 nM (PD-L1 (human) [5]): 21600 MFI
MFI at 33.3 nM (CD28 (human) [6]): 2120 MFI
Substance: variant CD80 IgV-Fc E35D/D46V/M47V/V68M/K89N (Fc fusion)

MFI at 33.3 nM (PD-L1 (human) [5]): 23600 MFI
MFI at 33.3 nM (human CTLA-4 (human) [14]): 32200 MFI
Substance: variant CD80 IgV-Fc E35D/D46V/V68M/L85Q (Fc fusion)

MFI at 33.3 nM (PD-L1 (human) [16]): 19400 MFI
Substance: variant CD80 IgV-Fc E35D/M38T/D46E/M47V/N48S (Fc fusion)

MFI at 33.3 nM (human CTLA-4 (human) [17]): 204000 MFI
MFI at 33.3 nM (PD-L1 (human) [16]): 21800 MFI
Substance: variant CD80 IgV-Fc E35D/M38T/M43V/M47V/N48R/L85Q (Fc fusion)

MFI at 33.3 nM [15]: 26900 MFI
MFI at 33.3 nM [8]: 7140 MFI
Substance: variant CD80 IgV-Fc E35D/M43I/D46E/A71G/L85M (Fc fusion)

MFI at 33.3 nM [15]: 24600 MFI
MFI at 33.3 nM [8]: 4880 MFI
Substance: variant CD80 IgV-Fc E35D/M43I/M47L/L85M (Fc fusion)

MFI at 33.3 nM (human CTLA-4 (human) [17]): 278000 MFI
MFI at 33.3 nM (PD-L1 (human) [16]): 19200 MFI
Substance: variant CD80 IgV-Fc E35D/M43I/M47V/K89N (Fc fusion)

MFI at 33.3 nM [15]: 25900 MFI
MFI at 33.3 nM [8]: 5630 MFI
MFI at 33.3 nM [9]: 816 MFI
Substance: variant CD80 IgV-Fc E35D/M47I/N48K/I61F (Fc fusion)

MFI at 33.3 nM [15]: 20600 MFI
MFI at 33.3 nM [8]: 6640 MFI
Substance: variant CD80 IgV-Fc E35D/M47L/A71G (Fc fusion)

MFI at 33.3 nM (PD-L1 (human) [5]): 15300 MFI
MFI at 33.3 nM (human CTLA-4 (human) [14]): 28100 MFI
MFI at 33.3 nM (CD28 (human) [6]): 159 MFI
Substance: variant CD80 IgV-Fc E35D/M47L/V68M/L85Q (Fc fusion)

MFI at 33.3 nM [15]: 28800 MFI
MFI at 33.3 nM [8]: 3050 MFI
MFI at 33.3 nM [9]: 274 MFI
Substance: variant CD80 IgV-Fc E35D/M47V/I61V/L85M (Fc fusion)

MFI at 33.3 nM [15]: 23300 MFI
MFI at 33.3 nM [9]: 23.7 MFI
Substance: variant CD80 IgV-Fc E35D/M47V/L85M/R94Q (Fc fusion)

MFI at 33.3 nM [8]: 5660 MFI
MFI at 33.3 nM [9]: 413 MFI
Substance: variant CD80 IgV-Fc E35D/M47V/N48K/L85M (Fc fusion)

MFI at 33.3 nM (human CTLA-4 (human) [17]): 226000 MFI
MFI at 33.3 nM (PD-L1 (human) [16]): 693 MFI
Substance: variant CD80 IgV-Fc E35D/M47V/T62A/A71D/K93E (Fc fusion)
